B1: Beta-chimaerin (Homo sapiens), P52757 (parent)
chain: MAASSNSSLSGSSVSSDAEEYQPPIWKSYLYQLQQEAPRPKRIICPREVENRPKYYGREFHGIISREQADELLGGVEGAYILRESQRQPGCYTLALRFGNQTLNYRLFHDGKHFVGEKRFESIHDLVTDGLITLYIETKAAEYISKMTTNPIYEHIGYATLLREKVSRRLSRSKNEPRKTNVTHEEHTAVEKISSLVRRAALTHNDNHFNYEKTHNFKVHTFRGPHWCEYCANFMWGLIAQGVRCSDCGLNVHKQCSKHVPNDCQPDLKRIKKVYCCDLTTLVKAHNTQRPMVVDICIREIEARGLKSEGLYRVSGFTEHIEDVKMAFDRDGEKADISANVYPDINIITGALKLYFRDLPIPVITYDTYSKFIDAAKISNADERLEAVHEVLMLLPPAHYETLRYLMIHLKKVTMNEKDNFMNAENLGIVFGPTLMRPPEDSTLTTLHDMRYQKLIVQILIENEDVLF

Variants of: B1
Settings: with rac1_human RAC1, P63000

Variant	effect of a mutation on the interaction
MAASSNSSLSGSSVSSDAEEYQPPIWKSYLYQLQQEAPRPKRIICPREVENRPKYYGREFHGIISREQADELLGGVEGAYILRESQRQPGCYTLALRFGNQTLNYRLFHDGKHFVGEKRFESIHDLVTDGLITLYIETKAAEYISKMTTNPIYEHIGYATLLREKVSRRLSRSKNEPRKTNVTHEEHTAVEKISSLVRRAALTHNDNHFNYEKTHNFKVHTFRGPHWCEYCANFMWGLIAQGVRCSDCGLNVHKQCSKHVPNDAQPDLKRIKKVYCCDLTTLVKAHNTQRPMVVDICIREIEARGLKSEGLYRVSGFTEHIEDVKMAFDRDGEKADISANVYPDINIITGALKLYFRDLPIPVITYDTYSKFIDAAKISNADERLEAVHEVLMLLPPAHYETLRYLMIHLKKVTMNEKDNFMNAENLGIVFGPTLMRPPEDSTLTTLHDMRYQKLIVQILIENEDVLF [C264A]	disrupting interaction
MAASSNSSLSGSSVSSDAEEYQPPIWKSYLYALQQEAPRPKRIICPREVENRPKYYGREFHGIISREQADELLGGVEGAYILRESQRQPGCYTLALRFGNQTLNYRLFHDGKHFVGEKRFESIHDLVTDGLITLYIETKAAEYISKMTTNPIYEHIGYATLLREKVSRRLSRSKNEPRKTNVTHEEHTAVEKISSLVRRAALTHNDNHFNYEKTHNFKVHTFRGPHWCEYCANFMWGLIAQGVRCSDCGLNVHKQCSKHVPNDCQPDLKRIKKVYCCDLTTLVKAHNTQRPMVVDICIREIEARGLKSEGLYRVSGFTEHIEDVKMAFDRDGEKADISANVYPDINIITGALKLYFRDLPIPVITYDTYSKFIDAAKISNADERLEAVHEVLMLLPPAHYETLRYLMIHLKKVTMNEKDNFMNAENLGIVFGPTLMRPPEDSTLTTLHDMRYQKLIVQILIENEDVLF [Q32A]	increasing interaction
